According to the supplement of paper PMC10567573:

B1: WSB1 (parent)
chain: DLKDDGNMMKVLRGHQNWVYSCAF

Variants of: B1
Assay: protein stability index of a GFP-peptide fusion (GPS, HEK-293T) (PSI 1-6); higher = more stable
Conditions: c terminus: a fixed tail appended
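Note: lentivirally expressed fusions sorted by FACS into six bins by GFP to DsRed ratio, PSI derived from sequencing read proportions per bin multiplied by bin number.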

Variant	protein stability index
DLKDDGNMMKVLRGRQNWVYSCAF [H15R]	1.91
DLKDDGNMMKVLRGQQNWVYSCAF [H15Q]	1.5
DLKDDGNMMKVLRGWQNWVYSCAF [H15W]	1.94
DLKDDGNMMKVLRGAQNWVYSCAF [H15A]	2.26
DLKDDGNMMKVLRGLQNWVYSCAF [H15L]	1.78
DLKDDGNMMKVLRGMQNWVYSCAF [H15M]	1.46
DLKDDGNMMKVLRGNQNWVYSCAF [H15N]	2.81
DLKDDGNMMKVLRGKQNWVYSCAF [H15K]	2.24
DLKDDGNMMKVLRGSQNWVYSCAF [H15S]	1.88
DLKDDGNMMKVLRGDQNWVYSCAF [H15D]	1.49
DLKDDGNMMKVLRGFQNWVYSCAF [H15F]	2.4
DLKDDGNMMKVLRGIQNWVYSCAF [H15I]	1.96
DLKDDGNMMKVLRGEQNWVYSCAF [H15E]	2.75
DLKDDGNMMKVLRGTQNWVYSCAF [H15T]	1.92
DLKDDGNMMKVLRGPQNWVYSCAF [H15P]	2.65
DLKDDGNMMKVLRGGQNWVYSCAF [H15G]	4.54
DLKDDKNMMKVLRGHQNWVYSCAF [G6K]	1.75
DLKDDLNMMKVLRGHQNWVYSCAF [G6L]	1.13
DLKDDYNMMKVLRGHQNWVYSCAF [G6Y]	1.77
DLKDDVNMMKVLRGHQNWVYSCAF [G6V]	1.74
DLKDDCNMMKVLRGHQNWVYSCAF [G6C]	2.17
DLKDDRNMMKVLRGHQNWVYSCAF [G6R]	1.62
DLKDDPNMMKVLRGHQNWVYSCAF [G6P]	2.28
DLKDDQNMMKVLRGHQNWVYSCAF [G6Q]	1.58

Variant	protein stability index
DLKDDINMMKVLRGHQNWVYSCAF [G6I]	2.23
DLKDDSNMMKVLRGHQNWVYSCAF [G6S]	1.92
DLKDDWNMMKVLRGHQNWVYSCAF [G6W]	3.64
DLKDDANMMKVLRGHQNWVYSCAF [G6A]	2.03
DLKDDENMMKVLRGHQNWVYSCAF [G6E]	2.38
DLKDDDNMMKVLRGHQNWVYSCAF [G6D]	1.94
DLKDDMNMMKVLRGHQNWVYSCAF [G6M]	1.72
DLKDDNNMMKVLRGHQNWVYSCAF [G6N]	2.12
DLKDDGNMMKVLRGHCNWVYSCAF [Q16C]	2.3
DLKDDGNMMKVLRGHDNWVYSCAF [Q16D]	1.71
DLKDDGNMMKVLRGHANWVYSCAF [Q16A]	2.32
DLKDDGNMMKVLRWHQNWVYSCAF [G14W]	1.87
DLKDDGNMMKVLRQHQNWVYSCAF [G14Q]	2.31
DLKDDGNMMKVLRSHQNWVYSCAF [G14S]	2
DLKDDGNMMKVLRHHQNWVYSCAF [G14H]	1.81
DLKDDGNMMKVLRNHQNWVYSCAF [G14N]	1.26
DLKDDGNMMKVLRDHQNWVYSCAF [G14D]	1.91
DLKDDGNMMKVLRKHQNWVYSCAF [G14K]	2.23
DLKDDGNMMKVLRYHQNWVYSCAF [G14Y]	2.35
DLKDDGNMMKVLRCHQNWVYSCAF [G14C]	2.43
DLKDDGNMMKVLRRHQNWVYSCAF [G14R]	1.29
DLKDDGNMMKVLREHQNWVYSCAF [G14E]	1.45
DLKDDGNMMKVLRPHQNWVYSCAF [G14P]	1.91
DLKDDGNMMKVLRLHQNWVYSCAF [G14L]	2.05

Variant	protein stability index
DLKDDGNMMKVLRAHQNWVYSCAF [G14A]	1.33
DLKDDGNMMKVLRTHQNWVYSCAF [G14T]	2.39
DLKDDGNMMKVLYGHQNWVYSCAF [R13Y]	2.46
DLKDDGNMMKVLAGHQNWVYSCAF [R13A]	1.73
DLKDDGNMMKVLNGHQNWVYSCAF [R13N]	2.74
DLKDDGNMMKVLKGHQNWVYSCAF [R13K]	1.58
DLKDDGNMMKVLWGHQNWVYSCAF [R13W]	3.05
DLKDDGNMMKVLSGHQNWVYSCAF [R13S]	1.53
DLKDDGNMMKVLPGHQNWVYSCAF [R13P]	2.02
DLKDDGNMMKVLQGHQNWVYSCAF [R13Q]	2.45
DLKDDGNMMKVLTGHQNWVYSCAF [R13T]	2.21
DLKDDGNMMKVLMGHQNWVYSCAF [R13M]	2.28
DLKDDGNMMKVLFGHQNWVYSCAF [R13F]	1.92
DLKDDGNMMKVLDGHQNWVYSCAF [R13D]	1.32
DLKDDGNMMKVLEGHQNWVYSCAF [R13E]	2.88
DLKDDGNMMKVLHGHQNWVYSCAF [R13H]	1.46
DLKDRGNMMKVLRGHQNWVYSCAF [D5R]	3.41
DLKDFGNMMKVLRGHQNWVYSCAF [D5F]	3.73
DLKDYGNMMKVLRGHQNWVYSCAF [D5Y]	2.25
DLKDQGNMMKVLRGHQNWVYSCAF [D5Q]	2
DLKDKGNMMKVLRGHQNWVYSCAF [D5K]	1.69
DLKDIGNMMKVLRGHQNWVYSCAF [D5I]	2.12
DLKDTGNMMKVLRGHQNWVYSCAF [D5T]	3.18
DLKDHGNMMKVLRGHQNWVYSCAF [D5H]	1.86

Variant	protein stability index
DLKDNGNMMKVLRGHQNWVYSCAF [D5N]	2.04
DLKDMGNMMKVLRGHQNWVYSCAF [D5M]	3.35
DLKDGGNMMKVLRGHQNWVYSCAF [D5G]	1.68
DLKDEGNMMKVLRGHQNWVYSCAF [D5E]	1.96
DLKDAGNMMKVLRGHQNWVYSCAF [D5A]	2.66
DLKDPGNMMKVLRGHQNWVYSCAF [D5P]	3.34
DLKDDGTMMKVLRGHQNWVYSCAF [N7T]	1.47
DLKDDGCMMKVLRGHQNWVYSCAF [N7C]	1.83
DLKDDGSMMKVLRGHQNWVYSCAF [N7S]	1.9
DLKDDGAMMKVLRGHQNWVYSCAF [N7A]	1.09
DLKDDGDMMKVLRGHQNWVYSCAF [N7D]	2.58
DLKDDGQMMKVLRGHQNWVYSCAF [N7Q]	1.76
DLKDDGIMMKVLRGHQNWVYSCAF [N7I]	3.63
DLKDDGVMMKVLRGHQNWVYSCAF [N7V]	2.03
DLKDDGMMMKVLRGHQNWVYSCAF [N7M]	3.16
DLKDDGRMMKVLRGHQNWVYSCAF [N7R]	1.71
DLKDDGKMMKVLRGHQNWVYSCAF [N7K]	2
DLKDDGGMMKVLRGHQNWVYSCAF [N7G]	2.54
DLKDDGHMMKVLRGHQNWVYSCAF [N7H]	1.62
DLKDDGPMMKVLRGHQNWVYSCAF [N7P]	2.54
DLKDDGEMMKVLRGHQNWVYSCAF [N7E]	1.66
DLKDDGWMMKVLRGHQNWVYSCAF [N7W]	3.11
